For this experiment, the target named is T1, C4b-binding protein (human, UniProt P04003 49-597; P20851 18-252).
T1 construct: In the AP-MS experiments it was followed by its alpha chain (C4BPA); also called C4BP; C4BPα; source: endogenous, pooled human plasma (AP-MS); bought: Complement Technology, purified human complement C4BP, catalog A109 (SPR, TX-MS, HDX-MS); copies: 7 +
T1 sequence (looked up) 1: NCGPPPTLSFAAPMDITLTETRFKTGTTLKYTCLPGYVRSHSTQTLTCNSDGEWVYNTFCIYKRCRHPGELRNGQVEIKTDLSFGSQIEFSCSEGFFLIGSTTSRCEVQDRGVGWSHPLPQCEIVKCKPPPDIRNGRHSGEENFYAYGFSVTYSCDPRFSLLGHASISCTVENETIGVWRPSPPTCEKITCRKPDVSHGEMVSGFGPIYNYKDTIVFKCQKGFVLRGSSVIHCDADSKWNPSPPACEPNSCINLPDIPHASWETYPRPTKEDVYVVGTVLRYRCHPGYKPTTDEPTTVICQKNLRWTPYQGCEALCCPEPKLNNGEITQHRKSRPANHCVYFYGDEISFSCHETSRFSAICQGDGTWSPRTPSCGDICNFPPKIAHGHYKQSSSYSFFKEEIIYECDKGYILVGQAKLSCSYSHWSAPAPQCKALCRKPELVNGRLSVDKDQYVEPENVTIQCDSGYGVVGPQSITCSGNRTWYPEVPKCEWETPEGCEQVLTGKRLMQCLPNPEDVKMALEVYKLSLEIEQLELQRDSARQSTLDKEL
T1 sequence (looked up) 2: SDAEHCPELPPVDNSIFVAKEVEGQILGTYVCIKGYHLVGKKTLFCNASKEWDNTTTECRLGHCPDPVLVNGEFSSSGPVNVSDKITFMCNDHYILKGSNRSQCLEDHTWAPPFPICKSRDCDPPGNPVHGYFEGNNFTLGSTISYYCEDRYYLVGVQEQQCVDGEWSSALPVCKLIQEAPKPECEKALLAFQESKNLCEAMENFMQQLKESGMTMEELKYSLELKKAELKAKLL
In words: cross-linking; TX-MS: 10 μg C4BP or 10 μg IgA Fc with 10 μg untagged M28 in 100 μl PBS, 37°C, DSS-H12/D12 at 0 to 2,000 μM for 60 min; cross-linked peptides by DDA-MS. The note with it: both partners purified.

B1: M28 protein, recombinant, affinity tag removed by TEV protease (natural protein)
chain: AESPKSTETSANGADKLADAYNTLLTEHEKLRDEYYTLIDAKEEEPRYKALRGENQDLREKEGKYQDKIKKLEEKEKNLEKKSEDVERHYLKKLDQEHKEQEERQKNLEELERQSQREIDKRYQEQLQKQQQLETEKQISEASRKSLSRDLEASRAAKKDLEAEHQKLKEEKQISDASRQGLSRDLEASRAAKKDLEAEHQKLKEEKQISDASRQGLSRDLEASREAKKKVEADLAEANSKLQALEKLNKELEEGKKLSEKEKAELQARLEAEAKALKEQLAKQAEELAKLKGNQTPNAKVAPQANRSRSAMTQQKR
notes: M protein of S. pyogenes serotype M28, mature, without the signal peptide and the LPXTG cell wall-anchoring motif, aa 42 to 358; Used for SPR, TX-MS and HDX-MS; also called untagged M28; TEV-cleaved M28; source: E. coli Tuner(DE3), purified (HisTrap, TEV digestion, HisTrap, Superdex 200)
On to B1, for which the binding result was “binds”.
